Laboratory results: IntAct's records for PubMed 14660673

B1: F-box protein MET30 (Saccharomyces cerevisiae), P39014 (parent)
chain: MRRERQRMMSFEDKDKDDLDNSNSNNSSEMTDTAMMPPLKRLLITGSSDDLAQGSSGKKKMTMATRSPSSSPDLATNDSGTRVQPLPEYNFTKFCYRHNPDIQFSPTHTACYKQDLKRTQEINANIAKLPLQEQSDIHHIISKYSNSNDKIRKLILDGILSTSCFPQLSYISSLVTHMIKIDFISILPQELSLKILSYLDCQSLCNATRVCRKWQKLADDDRVWYHMCEQHIDRKCPNCGWGLPLLHMKRARIQQNSTGSSSNADIQTQTTRPWKVIYRERFKVESNWRKGHCRIQEFKGHMDGVLTLQFNYRLLFTGSYDSTIGIWDLFTGKLIRRLSGHSDGVKTLYFDDRKLITGSLDKTIRVWNYITGECISTYRGHSDSVLSVDSYQKVIVSGSADKTVKVWHVESRTCYTLRGHTEWVNCVKLHPKSFSCFSCSDDTTIRMWDIRTNSCLKVFRGHVGQVQKIIPLTIKDVENLATDNTSDGSSPQDDPTMTDGADESDTPSNEQETVLDENIPYPTHLLSCGLDNTIKLWDVKTGKCIRTQFGHVEGVWDIAADNFRIISGSHDGSIKVWDLQSGKCMHTFNGRRLQRETQHTQTQSLGDKVAPIACVCIGDSECFSGDEFGCVKMYKFDLND

Variants of: B1
Details: with skp1_yeast SKP1, P52286
skp1_yeast SKP1, P52286, sequence (P52286 whole entry): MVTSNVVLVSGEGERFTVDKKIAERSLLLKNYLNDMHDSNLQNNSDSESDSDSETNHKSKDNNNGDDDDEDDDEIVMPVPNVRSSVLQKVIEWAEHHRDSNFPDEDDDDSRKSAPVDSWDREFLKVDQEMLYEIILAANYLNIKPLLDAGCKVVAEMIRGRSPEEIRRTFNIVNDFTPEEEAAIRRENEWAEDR

Variant | effect of a mutation on the interaction
S169P | disrupting interaction strength
Q167R | disrupting interaction strength
S163N | disrupting interaction strength

The next lines start with the values.

effect of a mutation on the interaction | Variant
disrupting interaction strength | P188S
disrupting interaction strength | P188L
disrupting interaction strength | C211Y

Variants of: B1
Details: with skp1_yeast SKP1, P52286
Remark: another data set of the same source

effect of a mutation on the interaction | Variant
decreasing interaction | L187D;E190A
